In US20250051445A1:

Key:
[1] = target: α/β TCR/CD3 complex on Jurkat, Clone E6-1 cells (human) (UniProt P07766); experiment: flow cytometry on Jurkat Clone E6-1 cells, Fab titration 10 µg/ml to 10 ng/ml; AUC of MFI vs log concentration, gain vs TPP-1374
[2] = target: α/β TCR/CD3 complex on Jurkat, Clone E6-1 cells (human) (UniProt P07766); experiment: flow cytometry on Jurkat Clone E6-1 cells, Fab titration 10 µg/ml to 10 ng/ml; EC50 of MFI, fold decrease vs TPP-1374

UniProt P07766, sequence (P07766 23-207, chain 1 of 4): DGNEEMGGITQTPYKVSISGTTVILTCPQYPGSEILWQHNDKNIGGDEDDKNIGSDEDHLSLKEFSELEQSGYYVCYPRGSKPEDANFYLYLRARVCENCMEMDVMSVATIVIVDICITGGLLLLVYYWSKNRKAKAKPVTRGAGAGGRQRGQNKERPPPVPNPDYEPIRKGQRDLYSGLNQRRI
UniProt P07766, sequence (P09693 23-182, chain 2 of 4, further chain): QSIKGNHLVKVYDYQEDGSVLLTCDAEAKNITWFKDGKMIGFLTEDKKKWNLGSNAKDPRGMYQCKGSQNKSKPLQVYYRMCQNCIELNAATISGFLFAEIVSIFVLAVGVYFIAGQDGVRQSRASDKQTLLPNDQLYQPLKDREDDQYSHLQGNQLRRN
UniProt P07766, sequence (P04234 22-171, chain 3 of 4, further chain): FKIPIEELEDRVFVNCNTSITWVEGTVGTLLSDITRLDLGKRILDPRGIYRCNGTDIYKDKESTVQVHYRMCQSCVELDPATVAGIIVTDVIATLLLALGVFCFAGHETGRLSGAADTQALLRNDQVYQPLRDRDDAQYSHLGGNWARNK
UniProt P07766, sequence (P20963 22-164, chain 4 of 4, further chain): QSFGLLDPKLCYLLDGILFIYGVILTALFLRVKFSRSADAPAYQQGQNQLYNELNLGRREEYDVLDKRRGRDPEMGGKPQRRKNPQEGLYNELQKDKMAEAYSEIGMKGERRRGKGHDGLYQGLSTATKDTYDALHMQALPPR

Row | % gain in binding AUC [1] [%] | fold decrease in EC50 [2] [fold] | Binder
1 | 245 | 4.7 | TPP-1391 Fab fragment (Fab, V domains shown) VH: EVQLVQSGAEVKKPGASVKVSCKASGYKFTSYVMHWVRQAPGQGLEWMGYINPYRDVTKYAEKFQGRVTLTSDTSTSTAYMELSSLRSEDTAVYYCARGSYYDYEGFVYWGQGTLVTVSS VL: QIQMTQSPSSLSASVGDRVTITCSATSSVSYMHWYQQKPGKAPKRWIYDTSKLASGVPSRFSGSGSGTDYTLTISSLQPEDAATYYCQQWSSNPLTFGGGTKVEIKR
2 | 98 | 8.2 | TPP-1381 Fab fragment (Fab, V domains shown) VH: EVQLVQSGAEVKKPGASVKVSCKASGYKFTSYVMHWVRQAPGQGLEWMGYINPYKDVTKYAEKFQGRVTLTSDTSTSTAYMELSSLRSEDTAVHYCARGSYYDYEGFVYWGQGTLVTVSS VL: QIQMTQSPSSLSASVGDRVTITCSATSSVSYMHWYQQKPGKAPKRWIYDTSKLASGVPSRFSGSGSGTDYTLTISSLQPEDAATYYCQQWSSNPLTFGGGTKVEIKR
3 | 246 | 21.5 | TPP-1372 Fab fragment (Fab, V domains shown) VH: EVQLVQSGAEVKKPGASVKVSCKASGYKFTSYVMHWVRQAPGQGLEWMGYINPYKDVTKYAEKFQGRVTLTSDTSTSTAYMELSSLRSEDTAVYYCARGSYYDYEGFVYWGQGTLVTVSS VL: QIQMTQSPSSLSASVGDRVTITCSATSSVSYMHWYQQKPGKAPKRWIYDTSKLARGVPSRFSGSGSGTDYTLTISSLQPEDAATYYCQQWSSNPLTFGGGTKVEIKR
4 | 813 | 16.6 | TPP-1392 Fab fragment (Fab, V domains shown) VH: EVQLVQSGAEVKKPGASVKVSCKASGYKFTSYVMHWVRQAPGQGLEWMGYINPRNDVTKYAEKFQGRVTLTSDTSTSTAYMELSSLRSEDTAVYYCARGSYYDYEGFVYWGQGTLVTVSS VL: QIQMTQSPSSLSASVGDRVTITCSATSSVSYMHWYQQKPGKAPKRWIYDTSKLARGVPSRFSGSGSGTDYTLTISSLQPEDAATYYCQQWSSNPLTFGGGTKVEIKR
5 | 1 | – | TPP-1379 Fab fragment (Fab, V domains shown) VH: EVQLVQSGAEVKKPGASVKVSCKASGYKFTSYVMHWVRQAPGQGLEWMGYINPKNDVTKYAEKFQGRVTLTSDTSTSTAYMELSSLRSEDTAVHYCARGSYYDYEGFVYWGQGTLVTVSS VL: QIQMTQSPSSLSASVGDRVTITCSATSSVSYMHWYQQKPGKAPKRWIYDTSKLASGVPSRFSGSGSGTDYTLTISSLQPEDAATYYCQQWSSNPLTFGGGTKVEIKR
6 | -66 | – | TPP-1382 Fab fragment (Fab, V domains shown) VH: EVQLVQSGAEVKKPGASVKVSCKASGYKFTSYVMHWVRQAPGQGLEWMGYINPYNDVTKYAEKFQGRVTLTSDTSTSTAYMELSSLRSEDTAVHYCARGSYYDYEGFVYWGQGTLVTVSS VL: QIQMTQSPSSLSASVGDRVTITCSATSSVRYMHWYQQKPGKAPKRWIYDTSKLASGVPSRFSGSGSGTDYTLTISSLQPEDAATYYCQQWSSNPLTFGGGTKVEIKR
7 | 273 | 8.1 | TPP-1388 Fab fragment (Fab, V domains shown) VH: EVQLVQSGAEVKKPGASVKVSCKASGYKFTRYVMHWVRQAPGQGLEWMGYINPYNDVTKYAEKFQGRVTLTSDTSTSTAYMELSSLRSEDTAVYYCARGSYYDYEGFVYWGQGTLVTVSS VL: QIQMTQSPSSLSASVGDRVTITCSATSSVSYMHWYQQKPGKAPKRWIYDTSKLASGVPSRFSGSGSGTDYTLTISSLQPEDAATYYCQQWSSNPLTFGGGTKVEIKR
8 | -73 | – | TPP-1383 Fab fragment (Fab, V domains shown) VH: EVQLVQSGAEVKKPGASVKVSCKASGYKFTSYVMHWVRQAPGQGLEWMGYINPYNDVTKYAEKFQGRVTLTSDTSTSTAYMELSSLRSEDTAVHYCARGSYYDYEGFVYWGQGTLVTVSS VL: QIQMTQSPSSLSASVGDRVTITCSATSSVKYMHWYQQKPGKAPKRWIYDTSKLASGVPSRFSGSGSGTDYTLTISSLQPEDAATYYCQQWSSNPLTFGGGTKVEIKR
9 | 423 | 31.8 | TPP-1389 Fab fragment (Fab, V domains shown) VH: EVQLVQSGAEVKKPGASVKVSCKASGYKFTRYVMHWVRQAPGQGLEWMGYINPYNDVTKYAEKFQGRVTLTSDTSTSTAYMELSSLRSEDTAVYYCARGSYYDYEGFVYWGQGTLVTVSS VL: QIQMTQSPSSLSASVGDRVTITCSATSSVSYMHWYQQKPGKAPKRWIYDTSKLARGVPSRFSGSGSGTDYTLTISSLQPEDAATYYCQQWSSNPLTFGGGTKVEIKR
10 | 144 | 5.7 | TPP-1360 Fab fragment (Fab, V domains shown) VH: EVQLVQSGAEVKKPGASVKVSCKASGYKFTRYVMHWVRQAPGQGLEWMGYINPYNDVTKYAEKFQGRVTLTSDTSTSTAYMELSSLRSEDTAVHYCARGSYYDYEGFVYWGQGTLVTVSS VL: QIQMTQSPSSLSASVGDRVTITCSATSSVSYMHWYQQKPGKAPKRWIYDTSKLASGVPSRFSGSGSGTDYTLTISSLQPEDAATYYCQQWSSNPLTFGGGTKVEIKR
11 | 203 | 4.1 | TPP-1384 Fab fragment (Fab, V domains shown) VH: EVQLVQSGAEVKKPGASVKVSCKASGYKFTSYVMHWVRQAPGQGLEWMGYINPYNDVTKYAEKFQGRVTLTSDTSTSTAYMELSSLRSEDTAVHYCARGSYYDYEGFVYWGQGTLVTVSS VL: QIQMTQSPSSLSASVGDRVTITCSATSSVSYMHWYQQKPGKAPKRWIYDTSKLAKGVPSRFSGSGSGTDYTLTISSLQPEDAATYYCQQWSSNPLTFGGGTKVEIKR
12 | 83 | 2.8 | TPP-1376 Fab fragment (Fab, V domains shown) VH: EVQLVQSGAEVKKPGASVKVSCKASGYKFKSYVMHWVRQAPGQGLEWMGYINPYNDVTKYAEKFQGRVTLTSDTSTSTAYMELSSLRSEDTAVHYCARGSYYDYEGFVYWGQGTLVTVSS VL: QIQMTQSPSSLSASVGDRVTITCSATSSVSYMHWYQQKPGKAPKRWIYDTSKLASGVPSRFSGSGSGTDYTLTISSLQPEDAATYYCQQWSSNPLTFGGGTKVEIKR
13 | 220 | 8.8 | TPP-1367 Fab fragment (Fab, V domains shown) VH: EVQLVQSGAEVKKPGASVKVSCKASGYKFTSYVMHWVRQAPGQGLEWMGYINPYNDVTKYAEKFQGRVTLTSDTSTSTAYMELSSLRSEDTAVHYCARGSYYDYEGFVYWGQGTLVTVSS VL: QIQMTQSPSSLSASVGDRVTITCSATSSVSYMHWYQQKPGKAPKRWIYDTSKLARGVPSRFSGSGSGTDYTLTISSLQPEDAATYYCQQWSSNPLTFGGGTKVEIKR
14 | 380 | 7.3 | TPP-1363 Fab fragment (Fab, V domains shown) VH: EVQLVQSGAEVKKPGASVKVSCKASGYKFTSYVMHWVRQAPGQGLEWMGYINPYKDVTKYAEKFQGRVTLTSDTSTSTAYMELSSLRSEDTAVYYCARGSYYDYEGFVYWGQGTLVTVSS VL: QIQMTQSPSSLSASVGDRVTITCSATSSVSYMHWYQQKPGKAPKRWIYDTSKLASGVPSRFSGSGSGTDYTLTISSLQPEDAATYYCQQWSSNPLTFGGGTKVEIKR
15 | 226 | 13.9 | TPP-1393 Fab fragment (Fab, V domains shown) VH: EVQLVQSGAEVKKPGASVKVSCKASGYKFTSYVMHWVRQAPGQGLEWMGYINPYNDVTKYAEKFQGRVTLTSDTSTSTAYMELSSLRSEDTAVYYCARGSYYDYEGFVYWGQGTLVTVSS VL: QIQMTQSPSSLSASVGDRVTITCSATSSVSYMHWYQQKPGKAPKRWIYDTSKLARGVPSRFSGSGSGTDYTLTISSLQPEDAATYYCQQWSSNPLTFGGGTKVEIKR
16 | 14 | 3.2 | TPP-1387 Fab fragment (Fab, V domains shown) VH: EVQLVQSGAEVKKPGASVKVSCKASGYKFTSYVMHWVRQAPGQGLEWMGYINPYNDVTKYAEKFQGRVTLTSDTSTSTAYMELSSLRSEDTAVYYCARGSYYDYEGFVYWGQGTLVTVSS VL: QIQMTQSPSSLSASVGDRVTITCSATSSVSYMHWYQQKPGKAPKRWIYDTSKLASGVPSRFSGSGSGTDYTLTISSLQPEDAATYYCQQWSSNPLTFGGGTKVEIKR
17 | 18 | 2.9 | TPP-1380 Fab fragment (Fab, V domains shown) VH: EVQLVQSGAEVKKPGASVKVSCKASGYKFTSYVMHWVRQAPGQGLEWMGYINPYRDVTKYAEKFQGRVTLTSDTSTSTAYMELSSLRSEDTAVHYCARGSYYDYEGFVYWGQGTLVTVSS VL: QIQMTQSPSSLSASVGDRVTITCSATSSVSYMHWYQQKPGKAPKRWIYDTSKLASGVPSRFSGSGSGTDYTLTISSLQPEDAATYYCQQWSSNPLTFGGGTKVEIKR
18 | 56 | 4.1 | TPP-1377 Fab fragment (Fab, V domains shown) VH: EVQLVQSGAEVKKPGASVKVSCKASGYKFTKYVMHWVRQAPGQGLEWMGYINPYNDVTKYAEKFQGRVTLTSDTSTSTAYMELSSLRSEDTAVHYCARGSYYDYEGFVYWGQGTLVTVSS VL: QIQMTQSPSSLSASVGDRVTITCSATSSVSYMHWYQQKPGKAPKRWIYDTSKLASGVPSRFSGSGSGTDYTLTISSLQPEDAATYYCQQWSSNPLTFGGGTKVEIKR
19 | 270 | 5.5 | TPP-1390 Fab fragment (Fab, V domains shown) VH: EVQLVQSGAEVKKPGASVKVSCKASGYKFTSYVMHWVRQAPGQGLEWMGYINPRNDVTKYAEKFQGRVTLTSDTSTSTAYMELSSLRSEDTAVYYCARGSYYDYEGFVYWGQGTLVTVSS VL: QIQMTQSPSSLSASVGDRVTITCSATSSVSYMHWYQQKPGKAPKRWIYDTSKLASGVPSRFSGSGSGTDYTLTISSLQPEDAATYYCQQWSSNPLTFGGGTKVEIKR
20 | 79 | – | TPP-1378 Fab fragment (Fab, V domains shown) VH: EVQLVQSGAEVKKPGASVKVSCKASGYKFTSYVMHWVRQAPGQGLEWMGYINPRNDVTKYAEKFQGRVTLTSDTSTSTAYMELSSLRSEDTAVHYCARGSYYDYEGFVYWGQGTLVTVSS VL: QIQMTQSPSSLSASVGDRVTITCSATSSVSYMHWYQQKPGKAPKRWIYDTSKLASGVPSRFSGSGSGTDYTLTISSLQPEDAATYYCQQWSSNPLTFGGGTKVEIKR
